According to US20190248916A1 (Hoffmann-La Roche, published 2019):
Numbering of substitutions follows the chain as printed. Where “and” joins values, the source holds several entries; their conditions need not be identical. Equal entries are not always repeated. Where two headings read alike, the source gives them in different places.

Key:
[1] = molecular target: HLA-A2 on unpulsed T2 cells (human); test: flow cytometry on unpulsed T2 cells, anti-human IgG-Fc PE secondary, MFI
Source text: (§1) Cells were acquired on FACS LSR II (BD), and data are presented as mean fluorescence intensity (MFI) of PE in Graphpad Prism.

[2] = molecular target: T1, HLA-A2/WT1RMF complex on cells (human); test: flow cytometry on peptide-pulsed T2 cells, anti-human IgG-Fc PE secondary, MFI
T1 construct: also called RMF peptide-pulsed T2 cells; SKM-1 cells
Source text: (§2) We first measured the binding specificity on peptide-pulsed T2 cells by the IgG binders generated from phage display by flow cytometry. […] Cells were acquired on FACS LSR II (BD), and data are presented as mean fluorescence intensity (MFI) of PE in Graphpad Prism.

[3] = molecular target: T2, HLA-A2/WT1VLD complex on VLD peptide-pulsed T2 cells (human); test: as above
Source text: as §2

[4] = molecular target: T1, HLA-A2/WT1RMF complex on cells; test: as above; remark: listed apart in the source
Source text: as §2

[5] = molecular target: T2, HLA-A2/WT1VLD complex on VLD …; test: as above; remark: listed apart in the source
Source text: as §2

[6] = molecular target: T3, HLA-A2/WT1RMF complex (soluble) (human); test: SPR, antibody captured (anti-human Fc), pMHC in solution; affinity
T3 construct: also called HLA-A02/WT1RMF pMHC; HLA-A02/RMF pMHC
Procedure: The bispecific constructs were captured for 30 s at 5 nM. […] The dissociation phase was monitored for 120 s and triggered by switching from the sample solution to HBS-EP. The chip surface was regenerated after every cycle using an injection of 3M MgCl₂ at 10 μl/min for 30 sec. Bulk refractive index differences were corrected for by subtracting the response obtained on the reference flow cell which contains the anti-human Fc antibody, but without bispecific construct captured on it. The affinity constants were derived from the kinetic rate constants by fitting to a 1:1 Langmuir binding using the BIAeval software (GE Healthcare).

[7] = molecular target: T3, HLA-A2/WT1RMF complex (soluble); test: SPR, pMHC captured (anti-His), bivalent antibody in solution; apparent KD (avidity), average
Procedure: (§3) For determination of avidity and specificity of the HLA-A2/WT1×CD3 bispecific antibodies to HLA-A2/WT1RMF, SPR experiments were again performed at 25° C. on a Biacore T200 with HBS-EP as running buffer (0.01 M HEPES pH 7.4, 0.15 M NaCl, 0.005% Surfactant P20 (GE Healthcare)). […] The HLA-A2/WT1RMF or HLA-A2/WT1VLD was captured for 30 sec and 10 μl/min at 5 or 10 nM (for the bispecific antibody or IgG measurement, respectively). […] The dissociation phase was monitored for 240 sec and triggered by switching from the sample solution to HBS-EP. The chip surface was regenerated after every cycle using an injection of 10 mM glycine pH 2 for 60 sec. Bulk refractive index differences were corrected for by subtracting the response obtained on the reference flow cell (which contains the anti-His antibody, but without HLA-A2/WT1RMF captured on it). Even though it is a 2:1 interaction (analyte is bivalent) the affinity constants were derived from the kinetic rate constants by fitting to a 1:1 Langmuir binding using the BIAeval software (GE Healthcare).

[8] = molecular target: T4, HLA-A2/WT1VLD complex (soluble) (human); test: SPR, pMHC captured by anti-His
T4 construct: also called HLA-A02/WT1VLD pMHC; HLA-A02/VLD pMHC
Procedure: as §3

[9] = molecular target: T3, HLA-A2/WT1RMF complex (soluble); test: SPR, pMHC captured (anti-His), bivalent antibody in solution; avidity, average
Procedure: as §3

[10] = molecular target: T1, HLA-A2/WT1RMF complex on cells; test: flow cytometry on peptide-pulsed T2 cells, anti-human IgG-Fc PE secondary, MFI; remark: listed apart in the source
Source text: as §2

[11] = molecular target: T2, HLA-A2/WT1VLD complex on VLD …; test: as above; remark: listed apart in the source
Source text: as §2

[12] = molecular target: HLA-A2 on unpulsed T2 cells (human); test: flow cytometry on unpulsed T2 cells, anti-human IgG-Fc PE secondary, MFI; remark: listed apart in the source
Source text: as §1

[13] = molecular target: T2, HLA-A2/WT1VLD complex on VLD …; test: flow cytometry on peptide-pulsed T2 cells, anti-human IgG-Fc PE secondary, MFI; remark: listed apart in the source
Source text: as §2

[14] = molecular target: HLA-A2 on unpulsed T2 cells (human); test: flow cytometry on unpulsed T2 cells, anti-human IgG-Fc PE secondary, MFI; remark: listed apart in the source
[15] = molecular target: T1, HLA-A2/WT1RMF complex on cells; test: flow cytometry on peptide-pulsed T2 cells, anti-human IgG-Fc PE secondary, MFI; remark: listed apart in the source
Source text: as §2

[16] = molecular target: T2, HLA-A2/WT1VLD complex on VLD …; test: as above; remark: listed apart in the source
Source text: as §2

[17] = molecular target: T1, HLA-A2/WT1RMF complex on cells; test: flow cytometry on peptide-pulsed T2 cells, anti-human Fc secondary, MFI
Source text: as §2

[18] = molecular target: HLA-A2 with MED13L peptide … on peptide-pulsed T2 cells (human); test: as above
Source text: as §2

[19] = molecular target: T1, HLA-A2/WT1RMF complex on cells; test: flow cytometry on peptide-pulsed T2 cells, anti-human IgG-Fc PE secondary, MFI; remark: listed apart in the source
Source text: as §2

[20] = molecular target: T2, HLA-A2/WT1VLD complex on VLD …; test: as above; remark: listed apart in the source
Source text: as §2

[21] = molecular target: T1, HLA-A2/WT1RMF complex on cells; test: as above; remark: listed apart in the source
Source text: as §2

[22] = molecular target: T2, HLA-A2/WT1VLD complex on VLD …; test: as above; remark: listed apart in the source
Source text: as §2

CD3 = molecular target: T5, CD3 (Homo sapiens (Human), UniProt P07766 23-126); test: method not stated
T5 construct: also called human CD3

B1: 5E11-IgG (antibody, V domains shown)
VH: QVQLVQSGAEVKKPGSSVKVSCKASGGTFSSYAISWVRQAPGQGLEWMGGIIPIFGTANYAQKFQGRVTITADKSTSTAYMELSSLRSEDTAVYYCARSSYDLYSFDYWGQGTTVTVSS
VL: DIQMTQSPSTLSASVGDRVTITCRASQSISSWLAWYQQKPGKAPKLLIYDASSLESGVPSRFSGSGSGTEFTLTISSLQPDDFATYYCQQYSFPPMITFGQGTKVEIK
binding result [1]: no binding (tested: 10 µg/ml)
EC50 (read off the curve) [2]: ~0.7 µg/mL
binding result [3]: no binding (tested: 10 µg/ml)

B2: 5C01-IgG (antibody, V domains shown)
VH: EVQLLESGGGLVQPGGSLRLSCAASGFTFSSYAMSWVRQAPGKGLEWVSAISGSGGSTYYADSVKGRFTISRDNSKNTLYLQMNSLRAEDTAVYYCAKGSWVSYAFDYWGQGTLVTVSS
VL: B1 VL with F93I, P94W, P95F, M96P, I97Y
binding result [4]: no binding (tested: 1 µg/ml)
EC50 (read off the curve) [5]: ~0.02 µg/mL

B3: 33H09-huIgG1 (antibody, V domains shown)
VH: B1 VH with S99G, Y104F, F106L
VL: DIQMTQSPSTLSASVGDRVTITCRASQSISSWLAWYQQKPGKAPKLLIYDASSLESGVPSRFSGSGSGTEFTLTISSLQPDDFATYYCQQYYDGITFGQGTKVEIK
notes: also called 33H09-IgG
Kd [6]: 70 nM and 69 nM
koff [6]: 0.116 s⁻¹ and 0.124 s⁻¹
kon [6]: 1.67e+06 M⁻¹ s⁻¹ and 1.8e+06 M⁻¹ s⁻¹
Kd [7]: 0.75 nM
binding result [8]: no binding (tested: 1.23 to 100 nM)
koff [9]: 0.00357 s⁻¹
kon [9]: 4.74e+06 M⁻¹ s⁻¹
EC50 (read off the curve) [10]: ~0.06 µg/mL
binding result [11]: no binding (tested: 1 µg/ml)
binding result [12]: no binding (tested: 1 µg/ml)

B4: 11G06-huIgG1 (antibody, V domains shown)
VH: B1 VH with S99T, S100G, Y101P, D102Y, L103Y, Y104G, S105A
VL: B3 VL with Y91G, Y92F, D93R, I95Y
notes: also called 11G06-IgG
binding result [13]: binds

B5: 11D06-huIgG1 (antibody, V domains shown)
VH: QVQLVQSGAEVKKPGSSVKVSCKASGGTFSSYAISWVRQAPGQGLEWMGGIIPIFGTANYAQKFQGRVTITADKSTSTAYMELSSLRSEDTAVYYCARSIELWWGGFDYWGQGTTVTVSS
VL: B3 VL with S76G, Y92E, G94Y, I95T
notes: also called 11D06-IgG; 11D06 IgG
Kd [6]: 35 nM and 34 nM
koff [6]: 0.0378 s⁻¹ and 0.0357 s⁻¹
kon [6]: 1.08e+06 M⁻¹ s⁻¹ and 1.04e+06 M⁻¹ s⁻¹
binding result [14]: no binding (tested: 10 µg/ml)
EC50 (read off the curve) [15]: ~0.06 µg/mL
binding result [16]: no binding (tested: 10 µg/ml)
Kd [7]: 0.61 nM
binding result [8]: no binding (tested: 1.23 to 100 nM)
koff [9]: 0.00181 s⁻¹
kon [9]: 2.97e+06 M⁻¹ s⁻¹

B6: ESK1-TCB (bispecific antibody, V domains shown)
VH 1: QMQLVQSGAEVKEPGESLRISCKGSGYSFTNFWISWVRQMPGKGLEWMGRVDPGYSYSTYSPSFQGHVTISADKSTSTAYLQWNSLKASDTAMYYCARVQYSGYYDWFDPWGQGTLVTVSS
VL 1: not shown
VH 2: not shown
VL 2: QAVVTQEPSLTVSPGGTVTLTCGSSTGAVTTSNYANWVQEKPGQAFRGLIGGTNKRAPGTPARFSGSLLGGKAALTLSGAQPEDEAEYYCALWYSNLWVFGGGTKLTVL
EC50 (read off the curve) [17]: ~1 µg/mL
EC50 (read off the curve) [18]: ~0.3 µg/mL

B7: 11B09-IgG (antibody, V domains shown)
VH: B5 VH with S99V, I100P, E101G, L102R, W104Y, G106A, F107M
VL: DIQMTQSPSTLSASVGDRVTITCRASQSISSWLAWYQQKPGKAPKLLIYDASSLESGVPSRFSGSGSGTEFTLTISSLQPDDFATYYCQQEDDYPLTFGQGTKVEIK
binding result [19]: no binding (tested: 1 µg/ml)
EC50 (read off the curve) [20]: ~0.02 µg/mL

B8: 13B04-IgG (antibody, V domains shown)
VH: EVQLLESGPGLVKPSETLSLTCTVSGGSISSYYWSWIRQPPGKGLEWIGYIYYSGSTNYNPSLKSRVTISVDTSKNQFSLKLSSVTAADTAVYYCARVSYNGLDYWGQGTLVTVSS
VL: B1 VL with S92N, F93M, P94W, P95N, M96P, I97V
binding result [21]: no binding (tested: 1 µg/ml)
EC50 (read off the curve) [22]: ~0.06 µg/mL

B9: CD3 binder CH2527 (antibody, V domains shown)
VH: not shown
VL: B6 VL 2
Kd (CD3): 85 to 130 nM

B10: CD3 binder V9 (antibody, V domains shown)
VH: EVQLVESGGGLVQPGGSLRLSCAASGYSFTGYTMNWVRQAPGKGLEWVALINPYKGVSTYNQKFKDRFTISVDKSKNTAYLQMNSLRAEDTAVYYCARSGYYGDSDWYFDVWGQGTLVTVSS
VL: DIQMTQSPSSLSASVGDRVTITCRASQDIRNYLNWYQQKPGKAPKLLIYYTSRLESGVPSRFSGSGSGTDYTLTISSLQPEDFATYYCQQGNTLPWTFGQGTKVEIK
Kd (CD3): 35 to 50 nM
